According to the supplement of paper PMC10567573:

B1: NETO1 (parent)
chain: KTSLLDQLTNTSGTVIGVTSCIVI

Variants of: B1
Test: protein stability index of a GFP-peptide fusion (GPS, HEK-293T) (PSI 1-6); higher = more stable
Settings: c terminus: a fixed tail appended
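Note: lentivirally expressed fusions sorted by FACS into six bins by GFP to DsRed ratio, PSI derived from sequencing read proportions per bin multiplied by bin number.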

Compared with HTSLLDQLTNTSGTVIGVTSCIVI [K1H], ITSLLDQLTNTSGTVIGVTSCIVI [K1I] is higher in protein stability index: 2.11 for the first, 2.82 for the second.

Going from LTSLLDQLTNTSGTVIGVTSCIVI [K1L] to MTSLLDQLTNTSGTVIGVTSCIVI [K1M], the protein stability index rises from 2.67 to 3.4.

Going from NTSLLDQLTNTSGTVIGVTSCIVI [K1N] to PTSLLDQLTNTSGTVIGVTSCIVI [K1P], the protein stability index rises from 2.53 to 3.02.

Going from QTSLLDQLTNTSGTVIGVTSCIVI [K1Q] to RTSLLDQLTNTSGTVIGVTSCIVI [K1R], the protein stability index falls from 2.81 to 1.61.

First: STSLLDQLTNTSGTVIGVTSCIVI [K1S]
Second: WTSLLDQLTNTSGTVIGVTSCIVI [K1W]
The protein stability index of the first is lower: 3 for the first, 3.48 for the second.

Compared with YTSLLDQLTNTSGTVIGVTSCIVI [K1Y], KASLLDQLTNTSGTVIGVTSCIVI [T2A] is higher in protein stability index: 2.37 for the first, 3.1 for the second.

Going from KCSLLDQLTNTSGTVIGVTSCIVI [T2C] to KDSLLDQLTNTSGTVIGVTSCIVI [T2D], the protein stability index rises from 1.93 to 3.94.

First: KESLLDQLTNTSGTVIGVTSCIVI [T2E]
Second: KFSLLDQLTNTSGTVIGVTSCIVI [T2F]
The protein stability index of the first is lower: 2.12 for the first, 3.71 for the second.

Going from KGSLLDQLTNTSGTVIGVTSCIVI [T2G] to KHSLLDQLTNTSGTVIGVTSCIVI [T2H], the protein stability index falls from 3.08 to 2.98.

Compared with KISLLDQLTNTSGTVIGVTSCIVI [T2I], KKSLLDQLTNTSGTVIGVTSCIVI [T2K] is lower in protein stability index: 3.34 for the first, 2.64 for the second.

Compared with KLSLLDQLTNTSGTVIGVTSCIVI [T2L], KMSLLDQLTNTSGTVIGVTSCIVI [T2M] is higher in protein stability index: 2.58 for the first, 2.76 for the second.

First: KNSLLDQLTNTSGTVIGVTSCIVI [T2N]
Second: KPSLLDQLTNTSGTVIGVTSCIVI [T2P]
The protein stability index of the first is lower: 2.4 for the first, 3.5 for the second.

Going from KQSLLDQLTNTSGTVIGVTSCIVI [T2Q] to KRSLLDQLTNTSGTVIGVTSCIVI [T2R], the protein stability index rises from 2.94 to 3.11.

Going from KSSLLDQLTNTSGTVIGVTSCIVI [T2S] to KVSLLDQLTNTSGTVIGVTSCIVI [T2V], the protein stability index rises from 2.57 to 2.68.

Going from KWSLLDQLTNTSGTVIGVTSCIVI [T2W] to KYSLLDQLTNTSGTVIGVTSCIVI [T2Y], the protein stability index rises from 2.31 to 3.38.

Compared with KTALLDQLTNTSGTVIGVTSCIVI [S3A], KTCLLDQLTNTSGTVIGVTSCIVI [S3C] is lower in protein stability index: 3.59 for the first, 3.27 for the second.

First: KTDLLDQLTNTSGTVIGVTSCIVI [S3D]
Second: KTELLDQLTNTSGTVIGVTSCIVI [S3E]
The protein stability index of the first is lower: 2.46 for the first, 2.86 for the second.

Going from KTFLLDQLTNTSGTVIGVTSCIVI [S3F] to KTGLLDQLTNTSGTVIGVTSCIVI [S3G], the protein stability index falls from 2.59 to 1.92.

Compared with KTHLLDQLTNTSGTVIGVTSCIVI [S3H], KTILLDQLTNTSGTVIGVTSCIVI [S3I] is higher in protein stability index: 2.43 for the first, 3.45 for the second.

First: KTKLLDQLTNTSGTVIGVTSCIVI [S3K]
Second: KTLLLDQLTNTSGTVIGVTSCIVI [S3L]
The protein stability index of the first is higher: 2.88 for the first, 2.17 for the second.

Going from KTMLLDQLTNTSGTVIGVTSCIVI [S3M] to KTNLLDQLTNTSGTVIGVTSCIVI [S3N], the protein stability index falls from 3.37 to 2.57.

Going from KTPLLDQLTNTSGTVIGVTSCIVI [S3P] to KTQLLDQLTNTSGTVIGVTSCIVI [S3Q], the protein stability index rises from 2.58 to 3.04.

First: KTRLLDQLTNTSGTVIGVTSCIVI [S3R]
Second: KTTLLDQLTNTSGTVIGVTSCIVI [S3T]
The protein stability index of the first is higher: 3.26 for the first, 2.61 for the second.

Compared with KTVLLDQLTNTSGTVIGVTSCIVI [S3V], KTWLLDQLTNTSGTVIGVTSCIVI [S3W] is higher in protein stability index: 2.39 for the first, 2.56 for the second.

Compared with KTYLLDQLTNTSGTVIGVTSCIVI [S3Y], KTSALDQLTNTSGTVIGVTSCIVI [L4A] is lower in protein stability index: 3.56 for the first, 2.65 for the second.

First: KTSCLDQLTNTSGTVIGVTSCIVI [L4C]
Second: KTSDLDQLTNTSGTVIGVTSCIVI [L4D]
The protein stability index of the first is lower: 2.08 for the first, 2.7 for the second.

First: KTSELDQLTNTSGTVIGVTSCIVI [L4E]
Second: KTSFLDQLTNTSGTVIGVTSCIVI [L4F]
The protein stability index of the first is lower: 2.94 for the first, 2.99 for the second.

First: KTSGLDQLTNTSGTVIGVTSCIVI [L4G]
Second: KTSHLDQLTNTSGTVIGVTSCIVI [L4H]
The protein stability index of the first is higher: 4.07 for the first, 3.14 for the second.

First: KTSILDQLTNTSGTVIGVTSCIVI [L4I]
Second: KTSKLDQLTNTSGTVIGVTSCIVI [L4K]
The protein stability index of the first is higher: 4.14 for the first, 2.57 for the second.

Going from KTSMLDQLTNTSGTVIGVTSCIVI [L4M] to KTSNLDQLTNTSGTVIGVTSCIVI [L4N], the protein stability index rises from 2.19 to 2.6.

First: KTSPLDQLTNTSGTVIGVTSCIVI [L4P]
Second: KTSQLDQLTNTSGTVIGVTSCIVI [L4Q]
The protein stability index of the first is lower: 2.67 for the first, 3.64 for the second.

First: KTSRLDQLTNTSGTVIGVTSCIVI [L4R]
Second: KTSSLDQLTNTSGTVIGVTSCIVI [L4S]
The protein stability index of the first is higher: 2.34 for the first, 1.85 for the second.

Going from KTSTLDQLTNTSGTVIGVTSCIVI [L4T] to KTSVLDQLTNTSGTVIGVTSCIVI [L4V], the protein stability index falls from 3.56 to 3.28.

Compared with KTSWLDQLTNTSGTVIGVTSCIVI [L4W], KTSYLDQLTNTSGTVIGVTSCIVI [L4Y] is lower in protein stability index: 3.2 for the first, 2.83 for the second.

Compared with KTSLADQLTNTSGTVIGVTSCIVI [L5A], KTSLCDQLTNTSGTVIGVTSCIVI [L5C] is lower in protein stability index: 3.63 for the first, 2.32 for the second.

KTSLDDQLTNTSGTVIGVTSCIVI [L5D] and KTSLEDQLTNTSGTVIGVTSCIVI [L5E] are the same in protein stability index: 2.98 for the first, 2.98 for the second.

Going from KTSLFDQLTNTSGTVIGVTSCIVI [L5F] to KTSLGDQLTNTSGTVIGVTSCIVI [L5G], the protein stability index rises from 2.32 to 2.97.

First: KTSLHDQLTNTSGTVIGVTSCIVI [L5H]
Second: KTSLIDQLTNTSGTVIGVTSCIVI [L5I]
The protein stability index of the first is lower: 2.21 for the first, 2.8 for the second.

Going from KTSLKDQLTNTSGTVIGVTSCIVI [L5K] to KTSLMDQLTNTSGTVIGVTSCIVI [L5M], the protein stability index rises from 2.78 to 3.86.

Going from KTSLNDQLTNTSGTVIGVTSCIVI [L5N] to KTSLPDQLTNTSGTVIGVTSCIVI [L5P], the protein stability index falls from 3.16 to 2.45.

Compared with KTSLQDQLTNTSGTVIGVTSCIVI [L5Q], KTSLRDQLTNTSGTVIGVTSCIVI [L5R] is lower in protein stability index: 3.37 for the first, 3.13 for the second.

Going from KTSLSDQLTNTSGTVIGVTSCIVI [L5S] to KTSLVDQLTNTSGTVIGVTSCIVI [L5V], the protein stability index falls from 3.07 to 2.59.

Compared with KTSLWDQLTNTSGTVIGVTSCIVI [L5W], KTSLYDQLTNTSGTVIGVTSCIVI [L5Y] is lower in protein stability index: 3.45 for the first, 2.3 for the second.

Compared with KTSLLAQLTNTSGTVIGVTSCIVI [D6A], KTSLLCQLTNTSGTVIGVTSCIVI [D6C] is higher in protein stability index: 3.62 for the first, 4.27 for the second.

Going from KTSLLEQLTNTSGTVIGVTSCIVI [D6E] to KTSLLFQLTNTSGTVIGVTSCIVI [D6F], the protein stability index falls from 3.74 to 2.58.

Compared with KTSLLGQLTNTSGTVIGVTSCIVI [D6G], KTSLLHQLTNTSGTVIGVTSCIVI [D6H] is higher in protein stability index: 2.31 for the first, 3.23 for the second.

Going from KTSLLIQLTNTSGTVIGVTSCIVI [D6I] to KTSLLKQLTNTSGTVIGVTSCIVI [D6K], the protein stability index falls from 3.8 to 1.98.
